From paper PMC4020817
pKd: −log10 of the molar value.

What was measured:
[1] = target: recombinant APOBEC3A (rA3A) (human) (UniProt P31941); experiment: SEC; rA3A without concentration on a Superose-12 gel filtration column (FPLC) with protein standards, in the buffer used for measuring deaminase activity; fractions immunoblotted with anti-A3A antibody
[2] = system: rA3A wild type (Homo sapiens); experiment: fluorescence binding titration; conditions: EMSA: 0.5 pmol oligo, 2 ug rA3A in 10 ul deaminase buffer (composition not given), 4 C, 1 h, 6% native PAGE. Intrinsic fluorescence: 225 nM rA3A, 25 mM Tris pH …
[3] = target: A3A E72A/delWG104-5 E72A;del104-105 (Homo sapiens) (UniProt P31941); experiment: extrinsic fluorescence titration; conditions: EMSA: 0.5 pmol oligo, 2 ug rA3A in 10 ul deaminase buffer (composition not given), 4 C, 1 h, 6% native PAGE. Intrinsic fluorescence: 225 nM rA3A, 25 mM Tris pH …
Chain of A3A E72A/delWG104-5 E72A;del104-105 (Homo sapiens) (P31941 other isoform, or with tags, fused parts or gaps E72A E72A): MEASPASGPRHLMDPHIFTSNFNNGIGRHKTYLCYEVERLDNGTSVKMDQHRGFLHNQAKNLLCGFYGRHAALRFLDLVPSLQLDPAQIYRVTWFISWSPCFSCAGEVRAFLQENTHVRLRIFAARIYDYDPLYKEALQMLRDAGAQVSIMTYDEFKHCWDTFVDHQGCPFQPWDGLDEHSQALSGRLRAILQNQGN

Chain of recombinant APOBEC3A (rA3A), P31941 1-199 (enzyme; other documents disagree on this pair) (P31941 whole entry): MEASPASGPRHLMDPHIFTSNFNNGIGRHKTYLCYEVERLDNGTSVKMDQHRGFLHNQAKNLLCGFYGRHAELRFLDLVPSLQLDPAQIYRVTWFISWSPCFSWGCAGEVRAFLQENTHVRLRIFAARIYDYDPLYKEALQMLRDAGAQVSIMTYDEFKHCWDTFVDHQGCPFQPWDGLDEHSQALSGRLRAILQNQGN

stoichiometry N [1] | Substance | pKd [2] | binding signal (fold higher affinity than wild type) [3]
2 | recombinant APOBEC3A (rA3A), P31941 1-199 (enzyme; other documents disagree on this pair) | – | –
– | ssDNA oligo of fluorescence Kd assays | 6.80 | 3
